Holding throughout (test): cleavage_in_vitro
Series [1] has as its target T1, BamHI-HF E163A/E167T (Bacillus amyloliquefaciens) (UniProt P23940).
T1 sequence: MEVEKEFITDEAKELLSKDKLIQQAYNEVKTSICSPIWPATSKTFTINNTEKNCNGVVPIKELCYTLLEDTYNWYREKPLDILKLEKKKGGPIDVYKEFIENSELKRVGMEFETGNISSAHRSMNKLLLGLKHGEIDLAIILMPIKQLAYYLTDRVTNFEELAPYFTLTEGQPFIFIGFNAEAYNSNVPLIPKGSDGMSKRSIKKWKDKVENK
The note with it: NEB4, 37 C, Mg2+.

Series [2] relates to T2, BsmBI (Bacillus stearothermophilus).
T2 sequence: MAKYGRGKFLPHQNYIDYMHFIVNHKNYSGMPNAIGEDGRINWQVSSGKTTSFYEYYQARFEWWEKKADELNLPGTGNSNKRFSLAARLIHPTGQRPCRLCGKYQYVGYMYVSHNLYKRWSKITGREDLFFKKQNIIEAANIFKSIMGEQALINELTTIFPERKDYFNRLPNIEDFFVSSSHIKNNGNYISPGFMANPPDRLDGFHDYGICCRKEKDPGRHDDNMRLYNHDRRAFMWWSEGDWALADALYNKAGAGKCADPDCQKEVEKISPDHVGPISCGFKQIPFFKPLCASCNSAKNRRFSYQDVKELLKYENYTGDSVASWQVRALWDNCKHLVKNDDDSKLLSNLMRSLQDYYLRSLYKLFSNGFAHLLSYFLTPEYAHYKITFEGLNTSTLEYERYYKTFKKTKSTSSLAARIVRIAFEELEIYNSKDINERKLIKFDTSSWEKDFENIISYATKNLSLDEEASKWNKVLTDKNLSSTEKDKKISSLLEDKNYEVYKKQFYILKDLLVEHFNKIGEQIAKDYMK
The note with it: NEB4, 55 C, Mg2+.

A further series deals with BstXI-HF N65A. The note with it: NEB4, 55 C, Mg2+.
Series [3] has as its target EcoRI(K62A) K62A (Escherichia coli RY13) (UniProt P00642). The note with it: NEB4, 37 C, Mg2+.
Series [4] deals with T3, HindIII (Haemophilus influenzae Rd) (UniProt P43870).
T3 sequence: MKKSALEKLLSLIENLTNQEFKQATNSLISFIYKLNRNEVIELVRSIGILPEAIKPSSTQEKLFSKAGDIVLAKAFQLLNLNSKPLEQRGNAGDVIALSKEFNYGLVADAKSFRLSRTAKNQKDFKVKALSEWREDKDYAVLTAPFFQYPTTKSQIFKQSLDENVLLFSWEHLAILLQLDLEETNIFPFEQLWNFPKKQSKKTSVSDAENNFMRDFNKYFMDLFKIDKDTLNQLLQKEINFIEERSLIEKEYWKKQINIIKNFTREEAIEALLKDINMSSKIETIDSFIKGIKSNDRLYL
The note with it: NEB4, 37 C, Mg2+.

Series [5] deals with T4, NcoI-HF A2T/R31A (Nocardia corallina).
T4 sequence: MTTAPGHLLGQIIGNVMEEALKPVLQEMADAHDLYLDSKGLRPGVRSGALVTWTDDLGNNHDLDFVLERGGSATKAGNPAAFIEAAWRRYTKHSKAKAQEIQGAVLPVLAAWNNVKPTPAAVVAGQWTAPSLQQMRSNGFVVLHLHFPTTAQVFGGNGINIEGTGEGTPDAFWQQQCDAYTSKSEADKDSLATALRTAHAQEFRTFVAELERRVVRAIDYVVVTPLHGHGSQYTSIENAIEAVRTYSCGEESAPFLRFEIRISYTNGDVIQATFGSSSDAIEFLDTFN
The note with it: NEB4, 37 C, Mg2+.

Series [6] deals with T5, SbfI-HF K251A (Streptomyces species Bf-61?).
T5 sequence: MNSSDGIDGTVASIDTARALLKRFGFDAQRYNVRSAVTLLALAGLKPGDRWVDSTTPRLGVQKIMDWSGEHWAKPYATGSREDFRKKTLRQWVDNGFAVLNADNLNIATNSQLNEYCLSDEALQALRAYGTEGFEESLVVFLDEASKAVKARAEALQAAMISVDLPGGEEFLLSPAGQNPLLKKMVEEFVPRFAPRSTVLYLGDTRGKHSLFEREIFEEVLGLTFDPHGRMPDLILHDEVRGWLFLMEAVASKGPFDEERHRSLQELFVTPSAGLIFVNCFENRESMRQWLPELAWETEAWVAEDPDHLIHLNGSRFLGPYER
As to conditions: NEB4, 37 C, Mg2+.

In series [7] the test system is T6, SphI (Streptomyces phaeochromogenes).
T6 sequence: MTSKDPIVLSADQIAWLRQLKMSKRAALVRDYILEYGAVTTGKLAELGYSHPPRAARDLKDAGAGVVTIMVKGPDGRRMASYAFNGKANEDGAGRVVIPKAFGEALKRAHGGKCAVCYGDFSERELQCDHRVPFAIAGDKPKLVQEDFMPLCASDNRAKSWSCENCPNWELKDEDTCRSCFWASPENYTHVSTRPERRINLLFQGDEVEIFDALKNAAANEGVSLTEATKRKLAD
The note with it: NEB4, 37 C, Mg2+.

Series [8] relates to T7, SspI (Sphaerotilus species).
T7 sequence: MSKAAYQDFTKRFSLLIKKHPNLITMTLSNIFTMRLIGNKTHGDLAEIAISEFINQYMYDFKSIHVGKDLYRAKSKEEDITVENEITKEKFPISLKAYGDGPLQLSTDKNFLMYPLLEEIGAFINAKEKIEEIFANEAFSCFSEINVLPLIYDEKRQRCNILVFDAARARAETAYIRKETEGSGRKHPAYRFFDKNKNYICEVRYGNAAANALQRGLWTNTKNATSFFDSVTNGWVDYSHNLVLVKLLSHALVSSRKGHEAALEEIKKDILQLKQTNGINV
The note with it: NEB4, 37 C, Mg2+.

The subject of series [9] is T8, SspI-HF Y98F (Sphaerotilus species).
T8 sequence: T7 sequence with Y98F
The note with it: NEB4, 37 C, Mg2+.

Substitutions are numbered along the chain they refer to.

As to lambda DNA, the activity (fidelity index) in series [1] was over 4000; in [2], 4; in the series with BstXI-HF N65A, over 250; in series [3], 32000; in [4], 32; in series [5] it was over 64000. The activity (fidelity index) in series [6] stood at 250; in series [7], 16; in series [8] it was 16; in series [9], 500.
